Results: the Human Domainome abundance scans (Beltran et al. 2025)
± gives the uncertainty stated by the source.

B1: POU domain, class 4, transcription factor 1, residues 266 to 347; numbered along this chain, Q01851 (parent)
chain: RELEAFAERFKQRRIKLGVTQADVGSALANLKIPGVGSLSQSTICRFESLTLSHNNMIALKPILQAWLEEAEGAQREKMNKP

Variants of: B1
Experiment: abundance fitness (aPCA) (normalised: wild type 0, dead -1); higher = more abundant; growth selection in yeast, the domain comes from the species named
Conditions: Homo sapiens

First: RELEAFAERFKQRRIKLGVTQADVGSALANLKIPGVGSLSQSTICRFESLTLWHNNMIALKPILQAWLEEAEGAQREKMNKP [S53W]
Second: RELEAFAERFKQRRIKLGVTQADVGSALANLKIPGVGSLSQSTICRFESLTLAHNNMIALKPILQAWLEEAEGAQREKMNKP [S53A]
The abundance fitness of the first is lower: -0.533 ± 0.094 for the first, -0.039 ± 0.043 for the second.

First: RELEAFAERFKQRRIKLGVTQADVGSALANLKIPGVGSLSQSTICRFESLTLCHNNMIALKPILQAWLEEAEGAQREKMNKP [S53C]
Second: RELEAFAERFKQRRIKLGVTQADVGSALANLKIPGVGSLSQSTICRFESLTLFHNNMIALKPILQAWLEEAEGAQREKMNKP [S53F]
The abundance fitness of the first is higher: 0.004 ± 0.089 for the first, -0.903 ± 0.23 for the second.

Going from RELEAFAERFKQRRIKLGVTQADVGSALANLKIPGVGSLSQSTICRFESLTLMHNNMIALKPILQAWLEEAEGAQREKMNKP [S53M] to RELEAFAERFKQRRIKLGVTQADVGSALANLKIPGVGSLSQSTICRFESLTLGHNNMIALKPILQAWLEEAEGAQREKMNKP [S53G], the abundance fitness rises from -0.419 ± 0.076 to -0.039 ± 0.038.

RELEAFAERFKQRRIKLGVTQADVGSALANLKIPGVGSLSQSTICRFESLTLNHNNMIALKPILQAWLEEAEGAQREKMNKP [S53N] and RELEAFAERFKQRRIKLGVTQADVGSALANLKIPGVGSLSQSTICRFESLTLQHNNMIALKPILQAWLEEAEGAQREKMNKP [S53Q] are within error of each other in abundance fitness: -0.114 ± 0.1 for the first, -0.013 ± 0.07 for the second.

Going from RELEAFAERFKQRRIKLGVTQADVGSALANLKIPGVGSLSQSTICRFESLTLLHNNMIALKPILQAWLEEAEGAQREKMNKP [S53L] to RELEAFAERFKQRRIKLGVTQADVGSALANLKIPGVGSLSQSTICRFESLTLRHNNMIALKPILQAWLEEAEGAQREKMNKP [S53R], the abundance fitness rises from -0.518 ± 0.094 to -0.139 ± 0.04.

First: RELEAFAERFKQRRIKLGVTQADVGSALANLKIPGVGSLSQSTICRFESLTLVHNNMIALKPILQAWLEEAEGAQREKMNKP [S53V]
Second: RELEAFAERFKQRRIKLGVTQADVGSALANLKIPGVGSLSQSTICRFESLTLPHNNMIALKPILQAWLEEAEGAQREKMNKP [S53P]
The abundance fitness of the first is lower: -0.389 ± 0.055 for the first, 0.02 ± 0.055 for the second.

RELEAFAERFKQRRIKLGVTQADVGSALANLKIPGVGSLSQSTICRFESLTLKHNNMIALKPILQAWLEEAEGAQREKMNKP [S53K] and RELEAFAERFKQRRIKLGVTQADVGSALANLKIPGVGSLSQSTICRFESLTLYHNNMIALKPILQAWLEEAEGAQREKMNKP [S53Y] are within error of each other in abundance fitness: -0.269 ± 0.073 for the first, -0.131 ± 0.19 for the second.

RELEAFAERFKQRRIKLGVTQADVGSALANLKIPGVGSLSQSTICRFESLTLTHNNMIALKPILQAWLEEAEGAQREKMNKP [S53T] and RELEAFAERFKQRRIKLGVTQADVGSALANLKIPGVGSLSQSTICRFESLTLDHNNMIALKPILQAWLEEAEGAQREKMNKP [S53D] are within error of each other in abundance fitness: -0.174 ± 0.064 for the first, -0.136 ± 0.075 for the second.

RELEAFAERFKQRRIKLGVTQADVGSALANLKIPGVGSLSQSTICRFESLTLIHNNMIALKPILQAWLEEAEGAQREKMNKP [S53I] and RELEAFAERFKQRRIKLGVTQADVGSALANLKIPGVGSLSQSTICRFESLTLSYNNMIALKPILQAWLEEAEGAQREKMNKP [H54Y] are within error of each other in abundance fitness: -0.173 ± 0.31 for the first, 0.057 ± 0.088 for the second.

RELEAFAERFKQRRIKLGVTQADVGSALANLKIPGVGSLSQSTICRFESLTLSCNNMIALKPILQAWLEEAEGAQREKMNKP [H54C] and RELEAFAERFKQRRIKLGVTQADVGSALANLKIPGVGSLSQSTICRFESLTLSWNNMIALKPILQAWLEEAEGAQREKMNKP [H54W] are within error of each other in abundance fitness: -0.089 ± 0.059 for the first, -0.014 ± 0.04 for the second.

RELEAFAERFKQRRIKLGVTQADVGSALANLKIPGVGSLSQSTICRFESLTLSMNNMIALKPILQAWLEEAEGAQREKMNKP [H54M] and RELEAFAERFKQRRIKLGVTQADVGSALANLKIPGVGSLSQSTICRFESLTLSNNNMIALKPILQAWLEEAEGAQREKMNKP [H54N] are within error of each other in abundance fitness: 0.044 ± 0.052 for the first, -0.075 ± 0.084 for the second.

RELEAFAERFKQRRIKLGVTQADVGSALANLKIPGVGSLSQSTICRFESLTLSDNNMIALKPILQAWLEEAEGAQREKMNKP [H54D] and RELEAFAERFKQRRIKLGVTQADVGSALANLKIPGVGSLSQSTICRFESLTLSKNNMIALKPILQAWLEEAEGAQREKMNKP [H54K] are within error of each other in abundance fitness: -0.039 ± 0.061 for the first, 0.007 ± 0.066 for the second.

RELEAFAERFKQRRIKLGVTQADVGSALANLKIPGVGSLSQSTICRFESLTLSQNNMIALKPILQAWLEEAEGAQREKMNKP [H54Q] and RELEAFAERFKQRRIKLGVTQADVGSALANLKIPGVGSLSQSTICRFESLTLSRNNMIALKPILQAWLEEAEGAQREKMNKP [H54R] are within error of each other in abundance fitness: -0.02 ± 0.055 for the first, 0.053 ± 0.029 for the second.

RELEAFAERFKQRRIKLGVTQADVGSALANLKIPGVGSLSQSTICRFESLTLSENNMIALKPILQAWLEEAEGAQREKMNKP [H54E] and RELEAFAERFKQRRIKLGVTQADVGSALANLKIPGVGSLSQSTICRFESLTLSPNNMIALKPILQAWLEEAEGAQREKMNKP [H54P] are within error of each other in abundance fitness: 0.058 ± 0.047 for the first, 0.041 ± 0.045 for the second.

RELEAFAERFKQRRIKLGVTQADVGSALANLKIPGVGSLSQSTICRFESLTLSINNMIALKPILQAWLEEAEGAQREKMNKP [H54I] and RELEAFAERFKQRRIKLGVTQADVGSALANLKIPGVGSLSQSTICRFESLTLSLNNMIALKPILQAWLEEAEGAQREKMNKP [H54L] are within error of each other in abundance fitness: 0.091 ± 0.1 for the first, 0.046 ± 0.04 for the second.

RELEAFAERFKQRRIKLGVTQADVGSALANLKIPGVGSLSQSTICRFESLTLSTNNMIALKPILQAWLEEAEGAQREKMNKP [H54T] and RELEAFAERFKQRRIKLGVTQADVGSALANLKIPGVGSLSQSTICRFESLTLSFNNMIALKPILQAWLEEAEGAQREKMNKP [H54F] are within error of each other in abundance fitness: 0.08 ± 0.052 for the first, -0.02 ± 0.1 for the second.

RELEAFAERFKQRRIKLGVTQADVGSALANLKIPGVGSLSQSTICRFESLTLSSNNMIALKPILQAWLEEAEGAQREKMNKP [H54S] and RELEAFAERFKQRRIKLGVTQADVGSALANLKIPGVGSLSQSTICRFESLTLSANNMIALKPILQAWLEEAEGAQREKMNKP [H54A] are within error of each other in abundance fitness: 0.057 ± 0.043 for the first, 0.01 ± 0.038 for the second.
